This is an account of results in publication PMC7895813.

Assay [1] deals with opossum MDM2 421-C, GST-tag removed (Monodelphis domestica (opossum)). Description: SEC; GST-MDM2 variants (3 mg/mL) incubated with 1:10 TEV for 16-20 h at 4 °C; soluble fraction of the cleaved products on Superdex 75 Increase 10/300; comparison with molecular weight markers and SDS-PAGE.
The target in assay [2] is Xenopus tropicalis MDM2 414-C (MDM2^f), GST-tag removed (Xenopus tropicalis (western clawed frog)). Description: crystal structure; MDM2^f or MDM2^hGT mixed with UbcH5B–Ub at 1:1 ratio; crystals grown at 19 °C by vapour diffusion.
The target is the same in assay [3]. Description: crystal structure; free MDM2 RING domains (MDM2^z, MDM2^f); crystals grown at 19 °C by vapour diffusion.
For assay [4] the target is unchanged. Description: SEC; cleaved MDM2 variants after removal of the GST-tag on HiLoad 16/600 Superdex 75; oligomeric state by comparison with molecular weight markers.

“opossum MDM2 421-C, GST-tag removed (domain or fragment)”: in assay [1], the stoichiometry N was found to be 2.

As to “Xenopus tropicalis MDM2 414-C (MDM2^f), GST-tag removed (domain or fragment)”, the stoichiometry N in assay [2], in assay [3] and in assay [4] was 2 throughout.
